This experiment concerns the target complement protein C1q (human, UniProt P02745 23-245; P02746 28-253; P02747 29-245). Put plainly: SPR. (In general: SPR reads the build-up and loss of mass on a sensor chip optically.)

Chain of complement protein C1q (P02745 23-245, chain 1 of 3): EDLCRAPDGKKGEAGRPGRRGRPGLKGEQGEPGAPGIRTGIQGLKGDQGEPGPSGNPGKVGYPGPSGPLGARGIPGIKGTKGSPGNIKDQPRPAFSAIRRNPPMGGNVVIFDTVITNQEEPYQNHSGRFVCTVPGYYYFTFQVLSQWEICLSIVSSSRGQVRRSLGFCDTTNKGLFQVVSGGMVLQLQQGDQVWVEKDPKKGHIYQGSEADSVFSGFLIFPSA
Chain of complement protein C1q (P02746 28-253, chain 2 of 3): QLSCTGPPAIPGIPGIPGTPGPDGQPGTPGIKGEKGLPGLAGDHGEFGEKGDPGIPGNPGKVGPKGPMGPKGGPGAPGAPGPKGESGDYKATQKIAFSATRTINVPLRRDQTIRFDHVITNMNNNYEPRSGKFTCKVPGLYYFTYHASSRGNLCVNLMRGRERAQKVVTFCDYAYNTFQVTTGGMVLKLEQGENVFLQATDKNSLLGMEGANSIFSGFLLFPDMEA
Chain of complement protein C1q (P02747 29-245, chain 3 of 3): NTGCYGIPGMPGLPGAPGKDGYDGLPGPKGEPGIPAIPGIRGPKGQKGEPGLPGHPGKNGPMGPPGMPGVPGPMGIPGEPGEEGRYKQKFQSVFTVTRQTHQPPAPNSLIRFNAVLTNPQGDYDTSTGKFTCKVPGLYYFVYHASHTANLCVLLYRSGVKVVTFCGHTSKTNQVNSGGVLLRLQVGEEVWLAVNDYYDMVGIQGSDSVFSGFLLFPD

B1: SR-F1(20-421), recombinant soluble SR-F1 ectodomain (domain or fragment)
chain: SELDPKGQHVCVASSPSAELQCCAGWRQKDQECTIPICEGPDACQKDEVCVKPGLCRCKPGFFGAHCSSRCPGQYWGPDCRESCPCHPHGQCEPATGACQCQADRWGARCEFPCACGPHGRCDPATGVCHCEPGWWSSTCRRPCQCNTAAARCEQATGACVCKPGWWGRRCSFRCNCHGSPCEQDSGRCACRPGWWGPECQQQCECVRGRCSAASGECTCPPGFRGARCELPCPAGSHGVQCAHSCGRCKHNEPCSPDTGSCESCEPGWNGTQCQQPCLPGTFGESCEQQCPHCRHGEACEPDTGHCQRCDPGWLGPRCEDPCPTGTFGEDCGSTCPTCVQGSCDTVTGDCVCSAGYWGPSCNASCPAGFHGNNCSVPCECPEGLCHPVSGSCQPGSGSRDTLIK
modifications: N-linked glycans at Asn 289, 382 and 393
One may read the Kd as the free concentration of one partner at which half of the binding sites on the other are occupied at equilibrium, for simple one-to-one binding. A high value points to weaker binding. In the case of B1, the affinity, expressed as Kd, was 154 nM.

B2: SR-F1(20-353) (domain or fragment)
chain: SELDPKGQHVCVASSPSAELQCCAGWRQKDQECTIPICEGPDACQKDEVCVKPGLCRCKPGFFGAHCSSRCPGQYWGPDCRESCPCHPHGQCEPATGACQCQADRWGARCEFPCACGPHGRCDPATGVCHCEPGWWSSTCRRPCQCNTAAARCEQATGACVCKPGWWGRRCSFRCNCHGSPCEQDSGRCACRPGWWGPECQQQCECVRGRCSAASGECTCPPGFRGARCELPCPAGSHGVQCAHSCGRCKHNEPCSPDTGSCESCEPGWNGTQCQQPCLPGTFGESCEQQCPHCRHGEACEPDTGHCQRCDPGWLGPRCEDPCPTGTFGEDCGSLIK
modifications: N-linked glycan at Asn 289
B2 showed a Kd of 42 nM.

B3: SR-F1(20-221) (domain or fragment)
chain: SELDPKGQHVCVASSPSAELQCCAGWRQKDQECTIPICEGPDACQKDEVCVKPGLCRCKPGFFGAHCSSRCPGQYWGPDCRESCPCHPHGQCEPATGACQCQADRWGARCEFPCACGPHGRCDPATGVCHCEPGWWSSTCRRPCQCNTAAARCEQATGACVCKPGWWGRRCSFRCNCHGSPCEQDSGRCACRPGWWGPECQQLIK
Molecule B3 registered a Kd of 19 nM.

Values taken from article PMC7137648 (2020).
